Patent publication US20200138866A1 (XYPHOS BIOSCIENCES, published 2020)

Molecular target: T1, Fc-NKG2D.Y152A (human)
T1 construct: also called NKG2D.YA; Fc-NKG2D.YA
Experiment: ELISA and Octet

T1 sequence (chain, as listed by the source Y152A Y152A limits assumed): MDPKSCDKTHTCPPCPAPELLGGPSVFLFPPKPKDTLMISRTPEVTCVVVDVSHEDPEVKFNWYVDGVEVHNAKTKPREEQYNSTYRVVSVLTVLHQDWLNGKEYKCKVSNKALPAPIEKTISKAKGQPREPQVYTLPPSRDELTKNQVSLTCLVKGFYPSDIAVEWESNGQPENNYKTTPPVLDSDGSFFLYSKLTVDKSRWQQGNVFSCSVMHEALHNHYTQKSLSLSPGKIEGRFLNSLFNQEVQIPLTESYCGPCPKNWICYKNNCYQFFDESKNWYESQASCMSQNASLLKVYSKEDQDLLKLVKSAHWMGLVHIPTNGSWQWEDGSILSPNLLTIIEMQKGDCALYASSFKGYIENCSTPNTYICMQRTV

B1: rituximab-ULBP2.S3 MicAbody (bispecific antibody, human IgG1, kappa)
heavy: not shown
light: QIVLSQSPAILSASPGEKVTMTCRASSSVSYIHWFQQKPGSSPKPWIYATSNLASGVPVRFSGSGSGTSYSLTISRVEAEDAATYYCQQWTSNPPTFGGGTKLEIKRTVAAPSVFIFPPSDEQLKSGTASVVCLLNNFYPREAKVQWKVDNALQSGNSQESVTEQDSKDSTYSLSSTLTLSKADYEKHKVYACEVTHQGLSSPVTKSFNRGECAPTSSSGGGGSEPHSLSYDITVIPKFRPGPRWCAVQGQVDEKTFLHYDCGNKTVTPVSPLGKKLNVTTAWKAQNPVLREVVDILTEQLWDIQLENYTPKEPLTLQARMSCEQKAEGHSSGSWQFSFDGQIFLLFDSEKRMWTTVHPGARKMKEKWENDKVVATKLYLWSMGDCIGWLEDFLMGMDSTLEPS
notes: also called ULPB2.S3; U2S3 MicAbody
binding result: binds
